The data set is described as follows: soluble on expression in E. coli; label from the status in PepcDB or PDB records.
For the sequence “GMANKVEHRLSEQQMKALTDLPLVFLITHDQSKSWPITHAISWVYAKDETTIRFAIEADSLLVKTLADHPVFTLIFFADQSTYSLTCTDVAAWETTARLPLKVALYEGQIKEVRDILFYGAAVSDRPRVYKTYDEAAAMQLDQQIQDILKG”, the “soluble on expression in E. coli” value is given as “soluble”. On to “GMDKLTHYRHTIQEIIKKYYDLSNSQPATATETKISDDLPDTVGDRLIIDEQRDQYLWLCCGWDGKKRVQHIILYLQIQNGKIWIEEDSTNLAIVDEMLVAGIPQTDIILGFHHPSKRGLTEFAIA”, for which the “soluble on expression in E. coli” value is listed as “soluble”. As for “GMDTRKLLLTAQEISRMKGEHKVHFLNPGAVRVNKSLGDAVGLRHMGIHLIQIEPGKESTEYHLHHYEEEAVYVLSGKGTLTMENDQYPIAPGDFVGFPCHAAAHSISNDGTETLVCLVIGQRLDQDVVDYPNQHKRLYRNNGEWNLVDMADIRVLREPTQK”, the “soluble on expression in E. coli” value is given as “soluble”. For “GMEAHMKSHNLLEAVRFDDQRFVMELVHESENFKIVSFTFKAGQELPVHSHNIEGELNIVVLEGEGEFVGDGDAVIPAPRGAVLVAPISTPHGVRAVTDMKVLVTIAPPI”, the “soluble on expression in E. coli” value is recorded as “soluble”.

“GMEVIESKWYKKDGASSASIDDVEKLLNTTLPKQYKSFLLWSNGGEGKLGDNYIYIWAIEDVIAYNHDYGIQKYLQKEYWAFGMDGDIGYILHLSDNSIYRVDLGDLDITSIKYIAPSFDDFLGKAIYLNFNKLQNVANNNLTT”: the “soluble on expression in E. coli” value is “soluble”. With “GMGKEIEIERKTLVSKETFKRLISQLHIGEGDFKLQRNHYFETDDFQLKKQSSALRIREKEAIFTFTLKQPHPAGLLETNQTLSKQEAKLALESAHFPSGEVMDALRDLSIPISQLKHIGTLSTSRAEISYEQGILCLDHSSYLGIEDYEIEFEGTSEEHATVTFQEILKTFSISQVPTENKIQRFFSKKEKN”, the “soluble on expression in E. coli” value is “soluble”.

For the sequence “GMKEIRIILMGTGNVGLNVLRIIDASNRRRSAFSIKVVGVSDSRSYASGRNLDISSIISNKEKTGRISDRAFSGPEDLMGEAADLLVDCTPASRDGVREYSLYRMAFESGMNVVTANKSGLANKWHDIMDSANQNSKYIRYEATVAGGVPLFSVLDYSILPSKVKRFRGIVSSTINYVIRNMANGRSLRDVVDDAIKKGIAESNPQDDLNGLDAARKSVILVNHIFGTEYTLNDVEYSGVDERSYNANDRLVTEVYVDDRRPVAVSRIISLNKDDFLMSIGMDGLGYQIETDSNGTVNVSDIYDGPYETAGAVVNDILLLSKVQK”, the “soluble on expression in E. coli” value was “soluble”.

Take “GMLFSIQTCPCQINPALNAVSTPLLYQDCCQPYHDGLYNQEVEDSDAIRADTAEHLMRTRYSAFVLVKPEYIVKTTLPAQQDLLDIKAIENWAKETDWAGLEVVAHTPKLSKRHAQVEFKAYFKTPDGLQAHHELSTFVKIKNKANSDASWYFLDPTVSMSVTQKQPCICGSGEKFKRCCGMYI”: the “soluble on expression in E. coli” value is reported as “soluble”.

In the case of “GMNANQFLKAVSQLQGWRECAFLLALAERSFPNYALFADAVGLKTGGKMRQLLDLAWDMLQKDVADAAIPQLLSKLETLCPNVDEYDAYGVYPAFDFCQLLEQALLNRLNPNKHRATEASQLATRTVMDFVEMSEGEGMDENELVRVFEHHPLLKDDKLFQRDTVMALYYYRTPKEAFLAELRAGAANDGVSNLGISLEG”, the “soluble on expression in E. coli” value was “soluble”. On to “GMNDLKRLPYEPVKGLLPRPAVGTSERVITLPEPDRTSGMPLMGTLWLRKSTREFDQQPLPLKQLSELLWAAAGVNRSLGGGRTAPSPYGETVIDVYVALPAGLYRYDPVHHCLELKRAADLRSMTGYQDFVGMAPLDLVFVANHGRMQEMPPKLRETFSAAAAGAMAENAYLYCASAGLGAVVRGWLNRRQLAEHMSLNEDEEPILSQTIGRAASHVTTTQA”, for which the “soluble on expression in E. coli” value is given as “soluble”.

As to “GMPTRVIEDKGDMTPSFGIDDRIFLGEGLFETIRVNSSKPSFAYMHWERLGNSARQLGIPFEISFDDWFEHLIQKIQKDNLYHGGIKAILSGGPASRGLAERGQVSQLIFQTFNYSIQKHPVRLISINWLRDKANPLYQLKSVNYLEAIIAQRQAIAVGADDALFFNTENHVTETTCANLFLIENNILYTPRVEDGILPGITRARLISHCQQHKMSVQEISLTKKRIEDADAVFLTNSLQGIRRVLSLDNIIFEVNHPIIDKLIFLLNQDES”, the “soluble on expression in E. coli” value is “soluble”. The entry for “GMRQGAGLGYRRDLAEGFLQLRNNDRIQFMEIAPENWIKMGGFARYQFDKVAEKIPILIHGLSLSLGGQAPLDKELLSSIKAMIKQYNTPFFSDHLSFCECDGHLYDLLPMPFTDEAVKHTAARIREVQDFLEIQISVENTSYYLHSETSTMNEVEFLNAIVQEANCGIHLDVNNIYVNAVNHGLLDPHVFIDNVDLKRVNYIHIAGHDDEHAATEVQIQTSESFNKIKGDLRHLPPLLVDTHGENVKGTVWDLLEYTYARLSHMPPTLLERDFNFPPFEKLCKEVDIIHQLQQKYVKKRGLSWLKI” is “soluble”; for “GMSDHVCQEGCRHHSHGEDSPEIQQEFQEGRRDFMRDFAVGGVLASAASLGISSSAFGQTMPKTGLTSGHATHYYIPASDKTVSWGFFSKSLKPVVELESGDFATIETLTHHSNDDASLMVKGDPGAESVFYWDSKRKNVDRRGMGPMDHKLGAGGGMGVHILTGPVAIKGAEPGDVLEVRIVDVALRPSANPEFKGKTFGSNVAANWGFHYNELIEEPKKREVVTIYELDATGERNWARAFYNYRWTPQKDPFGVVHPIVDYPGVPVDHSTISKNYNVLKNIRVPVRPHFGTMGLAPKEADLVNSVPPSHFGGNIDNWRIGKGATMYYPVSVAGGLFSVGDPHASQGDSEMCGTAIECSLTGTFQFILHKKADLPGTPLADLQYPLLETQDEWVLHGFSYANYLAELGPDAQNSIFSKSSLDLALKDAFRKMRHFLMQTQNLTEDEAVSLMSIGVDFGITQVVDGNWGVHAVVKKGIFPGRDV” it is “soluble”; for “GMSEPYGKAFSLMRAEAEPAWRAYTHHAFVEGLKAGTLPREAFLHYLQQDYVFLIHFSRAWALAVVKSETHSEMLAAVGTVNALVAEEMQLHIGICEASGISQEALFATRERAENLAYTRFVLEAGYSGDLLDLLAALAPCVMGYGEIGKRLTAEATSTLYGDWIDTYGGDDYQAACKAVGTLLDDALERRLGAEFTSSPRWSRLCQTFHTATELEVGFWQMGLTP” it is “soluble”.

As for “GMSRGHCILAHGFESGPDALKVTALAEVAERLGWTHERPDFTDLDARRDLGQLGDVRGRLQRLLEIARAATEKGPVVLAGSSLGSYIAAQVSLQVPTRALFLMVPPTKMGPLPALDAAAVPISIVHAWHDELIPAADVIAWAQARSARLLLVDDGHRLGAHVQAASRAFAELLQSL”, the “soluble on expression in E. coli” value is given as “soluble”. Under “GMTASTAPQTEPHKTSAPESGPVMLLVATIKGAWFLASDPARRTWELRGPVFLGHTIHHIVQDPREPERMLMAARTGHLGPTVFRSDDGGGNWTEATRPPAFNKAPEGETGRVVDHVFWLTPGHASEPGTWYAGTSPQGLFRSTDHGASWEPVAGFNDHPMRRAWTGGEQDGTPDGPKMHSILVDPRDPKHLYIGMSSGGVFESTDAGTDWKPLNRGCAANFLPDPNVEFGHDPHCVVQHPAAPDILYQQNHCGIYRMDRREGVWKRIGDAMPREVGDIGFPIVVHQRDPRTVWVFPMDGSDVWPRVSPGGKPAVYVTRDAGESWQRQDRGLPTDQAWLTVKRQAMTADAHAPVGVYFGTTGGEIWASADEGEHWQCIASHLPHIYAVQSARPV” stands “soluble”; under “GMTEAFPALVRQDDARYAITVGPDLAVGPPGHAYLFGGASMALALDVAAETVGRPVVQGSLQFVSFTPLGSVLDLTVEVLQSGRTLAQARVAGTVDGRLVFHSGISLGMREGFSARQWALAPPVPQPDNCPPCTTLPAQDDNARYLEGIEVREAGGPEVPSGRTRLWLRRKDGAPLDAASLAMFADFLPIALGRATGCSGGGNSLDNSLRITGAAAPGWCLCDMIIPSSASGFAQGQVTLWDQSGRLLATGAQSLLLKG”, “soluble”; under “GMTNTTYVQEYHAIVEVLSKYNEGGKKADSTIMRPAFSSQATIFGVDVDNKLTGGPIQGLFDVIDNVFHPSPEAKAAIARIDIVGTAASARIDTDDISGFRFTDFFNLLKVEGKWTVVSKIYHTHPSA”, “soluble”. Turning to “GMTSPVAVIARFMPRPDARSALRALLDAMITPTRAEDGCRSYDLYESADGGELVLFERYRSRIALDEHRGSPHYLNYRAQVGELLTRPVAVTVLAPLDEASA”, the “soluble on expression in E. coli” value is reported as “soluble”. Consider “GMVVNESMYQLGSVRSAIRELFEYGKKRAAIVGKENVYDFSIGNPSIPAPQIVNDTIKELVTDYDSVALHGYTSAQGDVETRAAIAEFLNNTHGTHFNADNLYMTMGAAASLSICFRALTSDAYDEFITIAPYFPEYKVFVNAAGARLVEVPADTEHFQIDFDALEERINAHTRGVIINSPNNPSGTVYSEETIKKLSDLLEKKSKEIGRPIFIIADEPYREIVYDGIKVPFVTKYYDNTLVCYSYSKSLSLPGERIGYVLVPDEVYDKAELYAAVCGAGRALGYVCAPSLFQKMIVKCQGATGDINAYKENRDLLYEGLTRIGYHCFKPDGAFYMFVKALEDDSNAFCEKAKEEDVLIVAADGFGCPGWVRISYCVDREMIKHSMPAFEKIYKKYNK”, for which the “soluble on expression in E. coli” value is given as “soluble”. Take “GPGSMAAAEGGQRSDEQVRAAALSWLRMTPVEKRVYEEEAQSWQTRLETLSTAPPSAHDLGEGSSSAAALPDALPSAEQPLPQQQHSSHLVAQRSSPKATAERLPRSKSSFVLFRAHMKGRRKMCMRELCAVWRNMSAEEKAPYDAAAASKRTEQFLSQTPSAPGSQS”: the “soluble on expression in E. coli” value is on record as “soluble”. For “GPGSMALRDIVGKQMLRQTVLQPRLKLPAGRVVSIEEGWRLARLVREGEEHASAVAVEAAEGMVAPSSVVLEDDVSKRILLLRHKKRKEGDTKAAVRYAQRSRAVPVVGKVAPEVRDIALNVLRKNPIGRAELRARHERSKAKRATKGSDSTRAKRAGRL”, the “soluble on expression in E. coli” value is “not soluble”. Under “GPGSMAPALCFTCMQPSRWTREGLPLILPLFQHLSPLSPFPNPSCNGISMCCTHTHTHTHTHTHTHTHAHTRLHLFQRFCFVNAIDFYELGAKSTRRVHGKVIIAARSRAPAMPPPAAAVSSSPSSSAAPMAVVYVRRDGRTALELRGKEMKLSDMTTFDGSSWYAQGQTAVMVSIHGPTIAKNDEYDTCIVQVRIQHAGVLAPAAGGAEKALYEERKLELLTRTDALALGSLLESTLNAVFLRERFPRCVLVVDVIVVRDDGSLPAVALNAVMSALLDAGLPCRTTMAAVCVAVLTHDGGADSNSGPAPDRHSSVEGSSSAGSVYEYLLDPTSAEESLGVGYAVPASSAAEKAAVTGASSVATSSAAPMSLRGGNAAQQVQGQYRCVSTGVFAFSNPACGGGLLAQLVRSVGSGSAEMCGPGVSVQAYAEMVALAERASAVLFEFFRQCNVAE” stands “not soluble”; under “GPGSMDGFRLYMEGISLPEGSMRRANAELIGAINSPDPMVQHSGLQMLCDQLTMSSFISPSTMTTIPLVLPSLLRCIASSQVREVFITAARALTYIIDAFPRTFETFPTRDTLIEVLLQHLRSIQDVELSEQCITCLEMITRSQTGSRELLHNNGVEAVLGFADFFTLHKQRQIWTIVQRLVGEVDESSVQHITACLPTLRIGMTNGDSEIRQKAIATLAQAIEGVKTDRAIVETVFGDAADRIAVLLHERDVNDDTLSSALSLLYAGVQWSAGIAASVIQSDLLNTLLSLLQSTPVPAVVAEQHTAPSAGAGRVARRSAAAELVVGRDSTTDSGGGAGTEPAAARTTMLTSHQRTIVCRLLASLLIPCRTGAAEQLERLEMLTQRPLLTGARAHGKPVGHGRRR”, “not soluble”.
